From the nanobody polyreactivity screen of Harvey et al. (2022)

Assay: yeast display, Sf9 membrane polyspecificity reagent, FACS + sequencing; frameworks hold sequencing errors
Summary of the method: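 Nanobodies from a synthetic yeast display library (Saccharomyces cerevisiae BJ5465), induced 36–48 hours with galactose, were stained 1 hour at 4 °C with 10% biotinylated, detergent-solubilized Sf9 membrane reagent, enriched on streptavidin microbeads, then FACS-sorted. Anti-HA (expression) and streptavidin (reagent binding) fluorescence set low and high (top ~1%) gates. Polyreactivity labels come from the gate of origin. Genes were colony-PCR amplified, MiSeq 2 × 250 sequenced and filtered by CDR length.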

| Sequence | polyreactivity (PSR sort gate) |
| --- | --- |
| QVQLVESGGGLVQAGGSLRLSCAASGSIFERNAMGWYRQAPGKERELVAAISWSSARTYYADSVKGRFTISRDNAKNTVYLQMNSLKPEDTAVYYCAARVWNEGVRYDYWGQGTQVTVSS | high polyreactivity |
| QVQLVESGGGLVQAGGSLRLSCAASGGTLGLNAMGRTRQAPGKEREFVAAINRSGGSTRYADSVKGRFTISRDNAKNTVYLQMISLKPEDTAVYYCNAASWTFQTTPKYDYWGQGTQVTVSS | high polyreactivity |
| QVQLVESGGGLVQAGGSLPLSCAASGFTFYRYTMVWYRQAPGKERELVAAISRGGRTYYADSVKGRFTISRDNAKNTDYLQMNSLKPEDTAVYYCNARYPSADDWGQGTQVTVSS | high polyreactivity |
| QVQLVESGGGLVQAGGSLRLSCAASGRIFGYYAMGCYRQAPGKERELVAAIRWGGGRTYADSVKGRFTISRDNAKNTVYLQMNSLKPEDTAVDYCAARFTRTRPLWRARYGYWGQGTQVTVSS | high polyreactivity |
| QVQLVESGGGLDQAGGSLRLSCAASGSIFEPYDMGWYRQAPGKERELVASISRGGSTYYADSVKGRFTISRDNAKNTVYLQMNSLKPEDTAVYYCAADPYYYSSGYYYWGQGTQVTVSS | low polyreactivity |
| QVQLVESGGVIVQAGGSLRLSCAASGFTFQAYAKGWYRQAPGKETELVAAITRSGGRTYYADSVKGRFTISRDNAKNTVYFQMKRLKPEDTAVYYCAKLSDSITLYGYWGQGTQVTVSS | high polyreactivity |
| QVQLVESGGGLVQAGGSLRLICAASGIIFSDYAMGWYRQAPGKERELVAAITGGGSTYYADSVKGRFTISRDNAKNTVYLQMNSLKPEDTAVYYCNADTWGFTYYYWGQGTQVTVSS | low polyreactivity |
| QVQLVESGGGLVQAGGSLRLSCAASGSTFAGNAMGWYRKAPGKERELVAAITFSGGRTDYADSVKGRFTISRDNAKNTVYLQMNSLNPEDTSVYYCAAPADDTVHYQNYYWGQGTQVTVSS | low polyreactivity |
| QVQLVESGGGLVQAGGSLRLRCAASGRTFYVYAMGWYRQAPGKERELVATNNTGGSTYYADSVKGRFTISRDNAKNTVYLQMNSLKPEDTAVYYCAARYNPYYIRFGFDKSFYYWGQGTQVTVSS | low polyreactivity |
| QVQLVESGGGLVQAGGSLRLSCAASGNIFIRYAMGWYRQAPGKERELVAAISQSGGGTSYADSVKGRFRISRDNAKNTVYLQMNSLKPEDTAVSYCNVEKVGHFNSYGYDYWGQGTQVTVSS | low polyreactivity |
| QVQLVESGGGLVQAGGSLRLSCAASGSTFILKAMGWYRQAPGKERELVATISSSDTSPYYADSVKGRFTISRDTAKNTVYLQMNSLKPEDTAVYYCNADYYTTSYLQRVYHYGVDYDYWGQGTQVTVSS | low polyreactivity |
| QVQLVESGGGLVQAGGSLRLSCAASGRTFSHYAMGWYRQAPGKERELVAGISSGSRTNYADSVKGRFTISRDNAKNTVYLQMNSLKPEDTAVYYCAARTKYLKGGYWGQGTQVTVSS | high polyreactivity |
| QVQLVESGGGLVQAGGSLRLSCAASGRIFYTNAMGWYRQAPGKERELVAVISWGGDTTYYADSVKGRFTISRDNAKNTVYLQMNSLKPEDTAVYYCNADWGPTYEIYDSWGQGTQVTVSS | low polyreactivity |
| QVQLVESGGGLVQAGGSLRLSCAASGSIFYGHAMGWYRQAPGKERELVATISWSTGSTYYADSVKGRFTISRDHAKNTVYLQMNSLKPEDTAVYYCAKEYFSKQWRGGYWGQGTQVTVSS | high polyreactivity |
| QVQLVESGGGLVQAGGSLRLSCAASGRTLVYYAMGWYRQAPGKERELVAAISWSGSRTYYADSVKGRFTISRDNAKNTVYLQMNSLKPEDTAVYYCATLTFRTNGTMDYWGQGTQVTVSS | high polyreactivity |
| QVHLVESGGGLVQAGGSLRLSCAASGGIFYAYDMGWYRQAPGKERELVAAITWTGGTTYYADSVKGRFTISRDNAKKTVYLLMNSLKPEDTAVYYCAADDGTNSTARDKDDYYYWGQGTEVTVSS | low polyreactivity |
| QVQLVESGGGLVQAGGSLRLSCAASGLIFRAYAMGWSRPAPGKERELVAAITSSSGSTYYADSVKGRFTISRDNAKNTVYLQMNSLTPEDTAVYYCNAYSTFGWYDYWGQGTQVTVSS | low polyreactivity |
| QVQLEESGGGLVQAGGRLRLSCDASGITLLLKAMGWYRQAPGKERELFAAISEGGGSTYYADSVKGRFTISRDNAKNTVYLQMNSLTPEDTAVYYCAADEYTPDYGQGYDYWGQGTQVTVSS | low polyreactivity |
| QVQLVESGGGLVQAGGSLRLSCAASGYTFLPYALGWYRQAPGKERELVAAINWGGGSTYYADSVKGRFTISRDNAKNTVYLQMNSLKPEDTAVYYCNAKRPFGGLDYWGQGSQVTVSS | low polyreactivity |
| QVQLVESGGGLVQAGGSLRLICAASGRIFGFNAMGWYRQAPGKERELVAAISGRSGRTYYADSVKGRFTISRDNAKITVYLQMNSLKPEDTAVYYCNTVGYRGPSWYDYWGQGTQVTVSS | high polyreactivity |
| QVQLVESGGGLVQAGGSLRLSCAASGRIFNVYAMGWYRQAPGKERELVASITSAGSTYYADSVKGRFTISRDNAKITVYLQMNSLKPEDTAVYYCAADSYSVYYYTYDSWGQGTQVTVSS | low polyreactivity |
| QVQLVVSGGGLVQAGGSLRLSCAASGRIIFWYALGWYRQAPGKERELVAGITSGGSTNYADSVKGRFTISRDNAKNTVYLQMMRLKPEVTAVYYCNTVDSIPIGSGLYYYWGQGTQVTVSS | low polyreactivity |

| Sequence | polyreactivity (PSR sort gate) |
| --- | --- |
| QVQLVESGGGLVQAGGSLSLSCASTGFIITQNAMGWYRQAHGKERYLVAAISWRAGSTYYADSVKGRFTISRDNAKNTVYLQMNSLKPEDTAVYYCATRQTKYSNYRGDYWGQGTQVTVSS | high polyreactivity |
| QVQLVESGGGLGQAGGSLRLSCAASGITFGDYAMGWYIQAPGKERELVAAISTSGVRTYYADSVKGRFTISRDNAKNTVYLQMNSLKTEDTAVYYCAAKYYGEMYYWGQVTQVTVSS | low polyreactivity |
| QVQLVESGGGLVQAGCSLRLSCAASGGTFRSNAMGWYRKAPGKERELVAASTNYADSVKGRFTISRDNAKNTVYLQMNSLKPEDTAVYYCAAGPTDSQTGMDYWGQGTQVTVSS | low polyreactivity |
| QVQLGESGGGLVQAGGSLRLSCAASGSTFRINAMGWYRQAPGKERELVADINSGGNTTYADSVKGRFTISRDNAKNTVYLQMNSLKPEDTAVYYCAAPRTYYSELTSPYDYCGQGTQVTVSS | low polyreactivity |
| QVQLVESGGGLVQAGGSLRLSCAASGRIFTKYAMGWYRQAPGKDRELVAAISYRGGSTYYADSVKGRFTISRDNAQNTVYLQMNSLKPEDTAVYYCATSWTPNYFVTSDYWGQGTQVTVSS | high polyreactivity |
| QVQLVESGGGLVQAGGSLRLSCAASGSIFRRNAMGWYRQAPGKERELVAAISSNGGSTYYADSVKGRFTISRDNAKNTVYLQMNSLKQEDTAVYYFNALGRVRYSPRYGYDYWGLGTQVTVSS | high polyreactivity |
| QVQLVESGGGLVQAGGSLRLSCAASGSTFENYAMGWSRQAPGKERELVAAISWSGGSTYYADSVKGRFTISRDNAKNTVYLQMNSLKPEDTAVYYCNAELYLRWGVTVTFDYWGQGTQVTVSS | low polyreactivity |
| QVQLVESGGGLVQAGGSLRLSCAASGSNFRPYAMGWYRQAPGKERELVAAISSSGGSTYYADSVKGRFTISGDNAKHTVYLQMNSLKPEDTAVYYCAKDGVSFYWLNKYYYWGQGTQVTVSS | low polyreactivity |
| QVQLVESGGGLVQAGGSLRLSCAASGIIFVYYVMGWYRQAPGKERELVASIDGSGGSTNYADSVKGRFTISRDNAKYTVYLQMNSLKPEDTAVYYCNADNILYWSTLDYWGQGTQVTVSS | low polyreactivity |
| QVQLVESGGGLVQAGGSLRLSCAASGFTLKSYAMGWYRQAPGKERELVASISRRGGSTYYADSVKGRFTISRDNAKNTVYLQMNSLKPEDTAVYYCAADRSGSSDGVYWGQGTQVTLSS | high polyreactivity |
| QVQLVESGGGLVQAGGSLRLSCAASGSIFYANTMGWYRQAPGKEREFVAAITWSGGSTYYADSVKGRFTISRDNAKNTVYLQMNSLKPEDTAVYYCAAEEQRYWYEYYYWGQGTQVTVSS | high polyreactivity |
| QVHLVESGGGLVQAGGSLRLSCAASGRTFVYYAMGWYRQAPGKERELVAAITSVGSTYYADSVKGRFTISRDNAKNTVYLQMNSLKPEDTAVYYCAKDTWAYPYYWPYDDYWGQGTQVTVSS | low polyreactivity |
| QVQVVESGGGLVQAGGSLRLSCAASGFIIKDNAMGWYRQAPGKERELVAAITASGGRTYYADSVKGRFTISRDNAKNTVYLQMNSLKPEDTAVYYCAKRVKRPSESYNYNYYYWGQGTQVTVSS | high polyreactivity |
| QVQLVESGGGLVQAGGSLRLSCAASGNTFRWYVMGWYRQAPGKERELVAAITSSGSTTYYADSVKGRFSISRDNAKNTVYLQMNSLKPEDTAVYYCAARNYGPYDYWGQGTQVTVSS | low polyreactivity |
| QVQLVESGGGLVQAGGSLRLSCAASGFTFPDYAMGWYRQAPGKERELVAGISSTGDSTYYADSGKGRYTISRDNAKNTGYLQRNSLKPEETAVYYCNAAQERPSIILFSKYDYWGQGTQETVSS | low polyreactivity |
| QVQLVESGGGLVQAGGSLRLSCPATGSTFGSYAMAWYRPAPGKERELVADISSRGASTYYADSVKGRFTISRDNAKNTVYLQMNSLKPEDTAVYYCARDVYIWYGYGYFPEYEYWGQGTQVTVSS | low polyreactivity |
| QVQLVESGGGLVQAGGSLRLSCAASGRTFYLNAMGWYRQAPGKERELVAAITSSGGRTYYADSVKGRFTISRDNAKNTVYLQMNSLKPEDTAVYYCAAVVSSKPSFYWGQGTQVTVSS | low polyreactivity |
| QVQLVESGGGLVQAGGSLRLSCAASGRLCGIYTMGWYRQAPGKERELVAAISKRGSSTSYADSVKGRFTISRDNAKNTVYLQMNSQKPEDTAVYYCAARYGYSYRYSGFDYWGQGTQVTVSS | high polyreactivity |
| QVQLVESGGGLVQAGGSLRLSCAASGFIFDRYDMGWYRQAPGKERELVAAISYSGGSTYYADSVKGRFSISRDNAKNTVYFQMNSLKPEDTAVYYCATRVGYFYYEYSYDYWGQGTQVTVSS | low polyreactivity |
| QFQLVESGGGLVQAGGSLRLSCAASGRIFVYNDMVWYRQAPGKEREFVATITSSGGRTYYADSVKGRFTISRDNAKNTVYLQMNRLKPEDTAVYYCNKVGYSNLLGYDYWGQGTQVTVSS | high polyreactivity |
| QVQLVESGGGLVQAGGSLRLSCAASGSTFYVYAMGWYRQAPGKERELVAAINFNGGGTYYADSVKGRFTISRDNAKNTVYLQMNSLKPEDTAVYYCYYLYNYWGQGTQVTVSS | low polyreactivity |
